Molecular target: T1, IL-20RA/IL-20RB heterodimeric receptor (human, UniProt Q9UHF4 30-553; Q6UXL0 30-311)
T1 construct: Both subunits were co-expressed on transfected COS, BHK or BaF3 cells, or were endogenous on HaCaT keratinocytes; also called IL-20RB-IL-20RA heterodimer; IL-20 receptor
T1 sequence 1: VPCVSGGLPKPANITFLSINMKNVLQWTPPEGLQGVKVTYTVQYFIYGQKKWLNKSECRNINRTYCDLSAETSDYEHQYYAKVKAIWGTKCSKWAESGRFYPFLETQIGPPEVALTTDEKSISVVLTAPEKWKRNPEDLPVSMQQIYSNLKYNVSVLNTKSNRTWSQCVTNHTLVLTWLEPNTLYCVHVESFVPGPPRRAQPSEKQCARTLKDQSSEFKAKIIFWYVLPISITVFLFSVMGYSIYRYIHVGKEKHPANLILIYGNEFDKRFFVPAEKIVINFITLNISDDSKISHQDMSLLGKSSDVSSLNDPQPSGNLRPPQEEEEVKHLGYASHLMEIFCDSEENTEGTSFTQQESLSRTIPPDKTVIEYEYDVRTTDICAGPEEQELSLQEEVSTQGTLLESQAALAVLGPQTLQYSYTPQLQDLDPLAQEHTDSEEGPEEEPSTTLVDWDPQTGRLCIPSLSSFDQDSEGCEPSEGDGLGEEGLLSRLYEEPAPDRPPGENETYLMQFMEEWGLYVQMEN
T1 sequence 2: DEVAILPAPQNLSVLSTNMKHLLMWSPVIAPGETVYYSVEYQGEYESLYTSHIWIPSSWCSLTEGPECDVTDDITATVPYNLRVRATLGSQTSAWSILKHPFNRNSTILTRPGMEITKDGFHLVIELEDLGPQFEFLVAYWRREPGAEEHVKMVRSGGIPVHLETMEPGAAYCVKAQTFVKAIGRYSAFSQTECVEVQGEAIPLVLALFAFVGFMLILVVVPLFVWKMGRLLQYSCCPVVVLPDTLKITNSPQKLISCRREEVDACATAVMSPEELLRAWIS
Assay: 125I-labeled IL-20 binding to BHK cells stably transfected with IL-20RA and IL-20RB

- Kd: ~1.5 nM
B1: IL-20 (Interleukin-20) (ligand, UniProt Q9NYY1 25-176, looked up)
chain: LKTLNLGSCVIATNLQEIRNGFSEIRGSVQAKDGNIDIRILRRTESLQDTKPANRCCLLRHLLRLYLDRVFKNYQTPDHYTLRKISSLANSFLTIKKDLRLCHAHMTCHCGEEAMKKYSQILSHFEKLEPQAAVVKALGELDILLQWMEETE
modifications: biotin-labeled in Example 3; 125I-labeled in Example 7; unlabeled in the functional assays
notes: also called Zcyto10; biotin-labeled IL-20 protein

From EP1246846B1 (ZymoGenetics, Inc., dated 2008)
